From patent US12180485B2, “Repressible control of gene expression” (TRUSTEES OF BOSTON UNIVERSITY, priority 2020, dated 2024)

Each molecule was assayed on mCherry expression in HEK293 FT cells (assay: Inducible split RfxCas13d (GIB, RAP, ABA, Dano, GRZ CID domains; NES/NLS variants) mCherry knockdown, leakiness and inducibility). Settings: inducible polypeptide systems of Tables 18-22.
Assay type: cell-based
From the text: FIG. 6A-6C is a series of schematics and graphs showing that split RfxCas13d's reconstituted and functioned to knockdown mCherry expression in HEK293 FT cells FIG. 6A is a schematic showing split sites selected throughout RfxCas13d sequence. FIG. 6B is a bar graph showing mCherry expression under 4 conditions for gibberellin-inducible, rapalog-inducible, and abscisic acid-inducible inducible split Cas13d designs. In FIG. 6B and FIG. 6C, the left-right order of the bars for each split site is the same as the left-right order of the legend for each bar graph.
FIG. 7A-7E is a series of schematics and graphs showing a functional and inducible split Cas13d design. FIG. 7A is a bar graph showing additional split sites selected in RfxCas13d and tested with GIB CID domains. […] In FIG. 7A and FIG. 7C, the left-right order of the bars for each split site is the same as the left-right order of the legend. FIG. 7B is a schematic showing the design to compartmentalize splits. Compartmentalizing moieties facilitates the reduction of leakiness. […] FIG. 7D is a schematic showing the experiment flow for testing reversibility of the inducible split Cas13d's.
FIG. 8A-8B is a series of schematics and graphs showing that split RfxCas13d's reconstituted upon drug-induced dimerization and knocked down mCherry expression in HEK293 FT cells. FIG. 8A is a bar graph showing quantification of system performance. The left-right order of the bars for each split site is the same as the top-down order of the legend. […] System performance in leakiness score (left axis) and induced activity (right axis) by GIB, RAP, ABA, and Dano-inducible split Cas13d designs.
FIG. 10A-10B is a series of schematics and graphs showing performance optimization through separating split Cas13d moieties in different cellular compartments. […] The left-right order of the bars for each bar graph is the same as the top-down order of the legend.
FIG. 11 is a series of schematics and graphs showing the testing of reversed orientation (dark grey dots) of CID domains with respect to split Cas13d pieces against original orientations (light grey dots) designed for GIB, ABA, Dano, and GRZ inducible systems.

Row | Molecule | performance in the tested conditions
1 | SEQ ID NO: 1206: inducible system polypeptide, probably Table 22 (reader and repressible protease) (protein) MAPKKKRKVGIHGVPAASSDEEEARELIERAKEAAERAQEAAERTGDPRVRELARELKRLAQEAAEEVKRDPSSSDVNEALKLIVEAIEAAVDALEAAERTGDPEVRELARELVRLAVEAAEEVQRNPSSSDVNEALHSIVYAIEAAIFALEAAERTGDPEVRELARELVRLAVEAAEEVQRNPSSRNVEHALMRIVLAIYLAEENLREAEESGDPEKREKARERVREAVERAEEVQRDPSGWLNHSGGSGSGSSGGSGTAKFVEEYAFFKDSAKIADELRLIKSFARMGEPIADARRAMYIDAIRILGTNLSYDELKALADTFSLDENGNKLKKGKHGMRNFIINNVISNKRFHYLIRYGDPAHLHEIAKNEAVVKFVLGRIADIQKKQGQNGKNQIDRYYETCIGKDKGKSVSEKVDALTKIITGMNYDQFDKKRSVIEDTGRENAEREKFKKIISLYLTVIYHILKNIVNINARYVIGFHCVERDAQLYKEKGYDINLKKLEEKGFSSVTKLCAGIDETAPDKRKDVEKEMAERAKESIDSLESANPKLYANYIKYSDEKKAEEFTRQINREKAKTALNAYLRNTKWNVIIREDLLRIDNKTCTLFRNKAVHLEVARYVHAYINDIAEVNSYFQLYHYIMQRIIMNERYEKSSGKVSEYFDAVNDEKKYNDRLLKLLCVPFGYCIPRFKNLSIEALFDRNEAAKFDKEKKKVSGNSGSGPKKKRKV | highest performance
2 | SEQ ID NO: 809: inducible system polypeptide, probably Table 20 (GID-GAI) (protein) MAASDEVNLIESRTVVPLNTWVLISNFKVAYNILRRPDGTFNRHLAEYLDRKVTANANPVDGVFSFDVLIDRRINLLSRVYRPAYADQEQPPSILDLEKPVDGDIVPVILFFHGGSFAHSSANSAIYDTLCRRLVGLCKCVVVSVNYRRAPENPYPCAYDDGWIALNWVNSRSWLKSKKDSKVHIFLAGDSSGGNIAHNVALRAGESGIDVLGNILLNPMFGGNERTESEKSLDGKYFVTVRDRDWYWKAFLPEGEDREHPACNPFSPRGKSLEGVSFPKSLVVVAGLDLIRDWQLAYAEGLKKAGQEVKLMHLEKATVGFYLLPNNNHFHNVMDEISAFVNAECSGGSGSGSSGGSGTSYDELKALADTFSLDENGNKLKKGKHGMRNFIINNVISNKRFHYLIRYGDPAHLHEIAKNEAVVKFVLGRIADIQKKQGQNGKNQIDRYYETCIGKDKGKSVSEKVDALTKIITGMNYDQFDKKRSVIEDTGRENAEREKFKKIISLYLTVIYHILKNIVNINARYVIGFHCVERDAQLYKEKGYDINLKKLEEKGFSSVTKLCAGIDETAPDKRKDVEKEMAERAKESIDSLESANPKLYANYIKYSDEKKAEEFTRQINREKAKTALNAYLRNTKWNVIIREDLLRIDNKTCTLFRNKAVHLEVARYVHAYINDIAEVNSYFQLYHYIMQRIIMNERYEKSSGKVSEYFDAVNDEKKYNDRLLKLLCVPFGYCIPRFKNLSIEALFDRNEAAKFDKEKKKVSGNSGSGPKKKRKVPKKKRKV | highest performance
3 | SEQ ID NO: 813: inducible system polypeptide, probably Table 20 (GID-GAI) (protein) MAASDEVNLIESRTVVPLNTWVLISNFKVAYNILRRPDGTFNRHLAEYLDRKVTANANPVDGVFSFDVLIDRRINLLSRVYRPAYADQEQPPSILDLEKPVDGDIVPVILFFHGGSFAHSSANSAIYDTLCRRLVGLCKCVVVSVNYRRAPENPYPCAYDDGWIALNWVNSRSWLKSKKDSKVHIFLAGDSSGGNIAHNVALRAGESGIDVLGNILLNPMFGGNERTESEKSLDGKYFVTVRDRDWYWKAFLPEGEDREHPACNPFSPRGKSLEGVSFPKSLVVVAGLDLIRDWQLAYAEGLKKAGQEVKLMHLEKATVGFYLLPNNNHFHNVMDEISAFVNAECSGGSGSGSSGGSGTAKFVEEYAFFKDSAKIADELRLIKSFARMGEPIADARRAMYIDAIRILGTNLSYDELKALADTFSLDENGNKLKKGKHGMRNFIINNVISNKRFHYLIRYGDPAHLHEIAKNEAVVKFVLGRIADIQKKQGQNGKNQIDRYYETCIGKDKGKSVSEKVDALTKIITGMNYDQFDKKRSVIEDTGRENAEREKFKKIISLYLTVIYHILKNIVNINARYVIGFHCVERDAQLYKEKGYDINLKKLEEKGFSSVTKLCAGIDETAPDKRKDVEKEMAERAKESIDSLESANPKLYANYIKYSDEKKAEEFTRQINREKAKTALNAYLRNTKWNVIIREDLLRIDNKTCTLFRNKAVHLEVARYVHAYINDIAEVNSYFQLYHYIMQRIIMNERYEKSSGKVSEYFDAVNDEKKYNDRLLKLLCVPFGYCIPRFKNLSIEALFDRNEAAKFDKEKKKVSGNSGSGPKKKRKVPKKKRKV | highest performance
4 | SEQ ID NO: 814: inducible system polypeptide, probably Table 20 (GID-GAI) (protein) MIEKKKSFAKGMGVKSTLVSGSKVYMTTFAEGSDARLEKIVEGDSIRSVNEGEAFSAEMADKNAGYKIGNAKFSHPKGYAVVANNPLYTGPVQQDMLGLKETLEKRYFGESADGNDNICIQVIHNILDIEKILAEYITNAAYAVNNISGLDKDIIGFGKFSTVYTYDEFKDPEHHRAAFNNNDKLINAIKAQYDEFDNFLDNPRLGYFGQAFFSKEGRNYIINYGNECYDILALLSGLRHWVVHNNEEESRISRTWLYNLDKNLDNEYISTLNYLYDRITNELTNSFSKNSAANVNYIAETLGINPAEFAEQYFRFSIMKEQKNLGFNITKLREVMLDRKDMSEIRKNHKVFDSIRTKVYTMMDFVIYRYYIEEDAKVAAANKSLPDNEKSLSEKDIFVINLRGSFNDDQKDALYYDEANRIWRKLENIMHNIKEFRGNKTREYKKKDAPRLPRILPAGRDVSAFSKLMYALTMFLDGKEINDLLTTLINKFDNIQSFLKVMPLIGVNSGGSGSGSSGGSGTMKRDHHHHHHQDKKTMMMNEEDDGNGMDELLAVLGYKVRSSEMADVAQKLEQLEVMMSNVQEDDLSQLATETVHYNPAELYTWLDSMLTDLNPKKKRKV | highest performance
5 | SEQ ID NO: 391: PV1-ABI-L1-Cas13-508C-BGHpA (protein) MPLYGFTSICGRRPEMEDAVSTIPRFLQSSSGSMLDGRFDPQSAAHFFGVYDGHGGSQVANYCRERMHLALAEEIAKEKPMLCDGDTWLEKWKKALFNSFLRVDSEIGSVAPETVGSTSVVAVVFPSHIFVANCGDSRAVLCRGKTALPLSVDHKPDREDEAARIEAAGGKVIQWNGARVFGVLAMSRSIGDRYLKPSIIPDPEVTAVKRVKEDDCLILASDGVWDVMTDEEACEMARKRILLWHKKNAVAGDASLLADERRKEGKDPAAMSAAEYLSKLAIQRGSKDNISVVVVDLKDYKDDDDKSGGSGSGSSGGSGTAKFVEEYAFFKDSAKIADELRLIKSFARMGEPIADARRAMYIDAIRILGTNLSYDELKALADTFSLDENGNKLKKGKHGMRNFIINNVISNKRFHYLIRYGDPAHLHEIAKNEAVVKFVLGRIADIQKKQGQNGKNQIDRYYETCIGKDKGKSVSEKVDALTKIITGMNYDQFDKKRSVIEDTGRENAEREKFKKIISLYLTVIYHILKNIVNINARYVIGFHCVERDAQLYKEKGYDINLKKLEEKGFSSVTKLCAGIDETAPDKRKDVEKEMAERAKESIDSLESANPKLYANYIKYSDEKKAEEFTRQINREKAKTALNAYLRNTKWNVIIREDLLRIDNKTCTLFRNKAVHLEVARYVHAYINDIAEVNSYFQLYHYIMQRIIMNERYEKSSGKVSEYFDAVNDEKKYNDRLLKLLCVPFGYCIPRFKNLSIEALFDRNEAAKFDKEKKKVSGNSGSGPKKKRKVPKKKRKV | highest performance
6 | SEQ ID NO: 810: inducible system polypeptide, probably Table 20 (GID-GAI) (protein) MIEKKKSFAKGMGVKSTLVSGSKVYMTTFAEGSDARLEKIVEGDSIRSVNEGEAFSAEMADKNAGYKIGNAKFSHPKGYAVVANNPLYTGPVQQDMLGLKETLEKRYFGESADGNDNICIQVIHNILDIEKILAEYITNAAYAVNNISGLDKDIIGFGKFSTVYTYDEFKDPEHHRAAFNNNDKLINAIKAQYDEFDNFLDNPRLGYFGQAFFSKEGRNYIINYGNECYDILALLSGLRHWVVHNNEEESRISRTWLYNLDKNLDNEYISTLNYLYDRITNELTNSFSKNSAANVNYIAETLGINPAEFAEQYFRFSIMKEQKNLGFNITKLREVMLDRKDMSEIRKNHKVFDSIRTKVYTMMDFVIYRYYIEEDAKVAAANKSLPDNEKSLSEKDIFVINLRGSFNDDQKDALYYDEANRIWRKLENIMHNIKEFRGNKTREYKKKDAPRLPRILPAGRDVSAFSKLMYALTMFLDGKEINDLLTTLINKFDNIQSFLKVMPLIGVNAKFVEEYAFFKDSAKIADELRLIKSFARMGEPIADARRAMYIDAIRILGTNLSGGSGSGSSGGSGTMKRDHHHHHHQDKKTMMMNEEDDGNGMDELLAVLGYKVRSSEMADVAQKLEQLEVMMSNVQEDDLSQLATETVHYNPAELYTWLDSMLTDLNPKKKRKV | highest performance
